Here are results for 21 sequences from the DeepSol protein solubility set.

The nature of this data set: soluble on expression in E. coli; label from the status in PepcDB or PDB records.
With “MSEIINNREYRQKVLKELIRELHDGKSVEEIKPRFEELIKGISPAEISEMEQALIMEGMPVEEIQRLCDVHAAVFKGSIEEIHRPQKPEEVPGHPIHTFKLENAEIRKLVDNEIRPQLELYKNGDTAESLKKLREAFQKLWEIDKHYSRKENLLFPYLEKYGITAPPKVMWGVDDEIRADIKEINNKLSANAQNQNIPLEKAEEAVNRVIEMIFKEENILFPMALETLTEDEWAEIARASDEIGYCMITPEAEWKPARVDVVEKTQKEGVKSQENQGFVEFDAGCLTTEEINAMLNTLPIDITFVDKNDTVKYFTQGKERIFARPKTIIGRKVQNCHPPASVHIVEKIIEDLKSGKKDHEDFWIKMGEKYVYIRYFAVRNEKGEYLGTIEVTQDIAPIQKITGEKRLLSDA”, the “soluble on expression in E. coli” value is listed as “soluble”.
Take “MSEKKAVIGVVTISDRASKGIYEDISGKAIIDYLKDVIITPFEVEYRVIPDERDLIEKTLIELADEKGCSLILTTGGTGPAPRDVTPEATEAVCEKMLPGFGELMRQVSLKQVPTAILSRQTAGIRGSCLIVNLPGKPQSIKVCLDAVMPAIPYCIDLIGGAYIDTDPNKVKAFRPKK”: the “soluble on expression in E. coli” value is listed as “soluble”.
In the case of “MSEKLQKVLARAGHGSRREIESIIEAGRVSVDGKIAKLGDRVEVTPGLKIRIDGHLISVRESAEQICRVLAYYKPEGELCTRNDPEGRPTVFDRLPKLRGARWIAVGRLDVNTCGLLLFTTDGELANRLMHPSREVEREYAVRVFGQVDDAKLRDLSRGVQLEDGPAAFKTIKFSGGEGINQWYNVTLTEGRNREVRRLWEAVGVQVSRLIRVRYGDIPLPKGLPRGGWTELDLAQTNYLRELVELPPETSSKVAVEKDRRRMKANQIRRAVKRHSQVSGGRRSGGRNNNG”, the “soluble on expression in E. coli” value is “soluble”.
As for “MSEKLQVVTLLGSLRKGSFNGMVARTLPKIAPASMEVNALPSIADIPLYDADVQQEEGFPATVEALAEQIRQADGVVIVTPEYNYSVPGGLKNAIDWLSRLPDQPLAGKPVLIQTSSMGVIGGARCQYHLRQILVFLDAMVMNKPEFMGGVIQNKVDPQTGEVIDQGTLDHLTGQLTAFGEFIQRVKI”, the entry is “not soluble”; as for “MSELFKKLMDQIEMPLEMKNSRVFSSADIVEVKVYPESRIWDFRFSFETILPIDFYQELRSRLVTSFETADIKAVFDIEVENAEFSNELLQAYYQEAFKQPTCNSASFKSSFSHLTVSYTDGKVLISAPQFVNNDHFRKNHLPNLEKQFEAFGF”, “not soluble”; as for “MSELIIYNGKVYTEDGKIDNGYIHVKDGQIVAIGEVDDKAAIDNDTTNKIQVIDAKGHHVLPGFIDIHIHGGYGQDAMDGSYDGLKYLSENLLSEGTTSYLATTMTQSTDKIDNALTNIAKYEAEQDVHNAAEIVGIHLEGPFISENKVGAQHPQYVVRPFIDKIKHFQETANGLIKIMTFAPEVEGAKEALETYKDDIIFSIGHTVATYEEAVEAVERGAKHVTHLYNAATPFQHREPGVFGAAWLNDALHTEMIVDGTHSHPASVAIAYRMKGNERFYLITDAMRAKGMPEGEYDLGGQKVTVQSQQARLANGALAGSILKMNHGLRNLISFTGDTLDHLWRVTSLNQAIALGIDDRKGSIKVNKDADLVILDDDMNVKSTIKQGKVHTFS”, “not soluble”.
Consider “MSENLHTIIHHVDFFPLRIRVFRNGDMFDHGRILVVTRKQFKHWIVFLDALTDLLRTATAVRRLFTTQGIPVHHFDDLETNGEYVAVETGPFVNVPYGQARFTLRLKRYNPIIRAPELIPTFLHSAESMDIYLKKEGYGTITGLPYPFDGILSRSPSASNIQIKHLQSHHIPPLKIGGSMEHLNELGTASWLGKNEKWMMGERVKLETQSQTLAQKSEKDEQIPRLDIKEVDGGSTTSEFMRNGEKSKSTTKLPRLLNSNRSFRREPVSAQKPPSEEPRSTSENLPPIDLKSIQISQNSQSTSQKKDSDTISIKTEEEVISILKPEKTTTESIVSSKISRKNAPKDDDEVRFHRSYQVTETTYTTRNSDETDRRKPENVEKTVESKNDRSVQDKSEKIEKKVPEKLSKPQKTETTKSKERAKWADQGNTTLKREKSIEKSTRQGKIDKSIEKLIDKSIDNTEKLSSQKPKIDMAKGELRKFDVDINEIPIRFEGPMVNKSRINTSRIVTSRSTTNLFVDEIVNEDELDDVIERAQLWDLNRRRQNMRQQHTQTSGSLCRSISAPRRRVVLFDPDFD”, for which the “soluble on expression in E. coli” value is listed as “not soluble”.
Regarding “MSEPPPPHSAPVPMVKTDFFAFSGPYLPEDAHGTSSPPEKQQQTRKRGRPTALELLTTRVEELEKENSSLRTFRTAAESRCRALESKQSELFQTVEQLKVVVAKLTNECSARVTSNLPAPRLFADVLKGQSAEKKAEIIAERREAAASISLFEKKTHFAVIENLPDDGSDSQSAKDKVFLDNLIAANPSLPVHIQTFRVKTRKPVLSRPTKIRFSSEADRNSFIFSFSKTLRSLPDRPTNLPRPIRCRRDMTNDVIYPERVES”, the “soluble on expression in E. coli” value was “not soluble”.
Under “MSEREHWQRVYESKPSDAVSWFQAEATLSLDLIRRIGAPREAAIIDVGGGASTLVDGLLAEGFGDLTVLDLSDAALRVARNRLGARGEEVRWIAGDITGVDLPEATYDVWHDRAVFHFLTTAEARRAYVRQVMKAVRHGGHVIVATFAADGPTECSGLPVMRYDADELHAEFGSAFQLTEHRDEHHVTPAGRVQHFVYCHCLKRLLEHHHHHH” stands “not soluble”; under “MSERILPSTLRGVTNGQKEVTASVGERVPLLPRRFSARPQGNQEAQERTAVKCEQVRYAIQEVIGRGAFGEVSSAEVVGTRDLVAIKRVIHDGRLRQRELTLMRDHLGPNTQQGGVSSLDVGNGVGAHATSVTGSNGEEANGTTAIDGLESWNMPTIVPYHPCVVKLLDHFFASDPSGVQYLFMVMDYIPLDVRRLHHMFLRQREQQMPIILVKVIMFQLARALAFLHARGICHRDVKPNNILVDQETGVVKLCDFGSAKKMQAVGGEGPREKNVPYIFSRYYRAPELLLGSQYYHFHVDMWAFGCVLAELLCGKVLFKGSSSTMDQLVEIIKVLGKPSERELFALNPQSAGSALIRTWGDSHNASQLSPTPSGPLPSSNSANADYMQRRSAPRVKSLLWVEVLPPNTSQAALSLIEQLLRYTPEERLTSAEVLEHVFFDELFSDDARLPNGAPLPASMFQVTREEAEILPPWLLERMAAAEGVAKGRELNQSATAPENAI”, “not soluble”; under “MSESAFSNRIVQSLLDTDFYKLTMMQAVLHNYPNVDVEWEFRCRNGEDLRPYLGEIQHQIELLCELSLSPEHLVFLERITFMKPDFLRFLGLFRFNTRYVKTSIENDELCIRLHGPWLHVILFEVPLLAIVSEVRNRHRYPDTLLSQARDRLYDKFEWLTVNATPDELAELKVADFGTRRRFSYRVQEEVLNVLKLDFPGQLVGTSNVHLARQLDLKPLGTMAHEWIMAHQQLGPRLIDSQIAALDCWVREYRGLLGIALTDCITTDAFLNDFDLYFAKLFDGLRHDSGDPVKWAEKCISHYQKLGIDPMSKTLVFSDGLNLPKALDIFRALRGRINVSFGIGTNLTADIPGIAPMNMVLKMTACAGQAVAKISDESGKTQCKDPNFVAYLRHVFKVPDLPSPAKPALEHHHHHH”, “not soluble”.
Turning to “MSETIEIDELVFSVKRSTRRRTVGVTVERDKSLVAHLPQGVALDVATRLIASKLLWVHQKLAEHGETARDDVFRIPEFVDGEGFHLLGKHYRLKLVDVPKNVTGVPSVRFEGDRILLRREQAASGGKRIEEYYTRAAHPYLNETVQRWKRIVGVEPGRFVQVMDLGYRWGSCSEDGTLNFHWRTMQLPPRIIEYVVVHELVHIKVPNHSEKFWKMIGSVMPDYESRKAWLKQKGGEL”, the “soluble on expression in E. coli” value is reported as “soluble”.
As for “MSFELPALPFAKDALEPHISAETLDYHHGKHHNTYVVKLNGLIPGTEFEGKTLEEIIKTSTGGVFNNAAQIWNHTFYWNCLAPNAGGQPTGAVAAAIDAAFGSFEEFKAKFTDSAINNFGSSWTWLVKNADGSLAIVNTSNAATPLTDEGVTPLLTVDLWEHAYYIDFRNVRPDYMGAFWSLVNWSFVEENLAK”, the entry is “soluble”; as for “MSFLNNDFGSPPATSSPPTTMPKLPTIQDMLNNIGASTVNLMQPNPYLMQNQIPLPVPNLPLNPFLHLNPAISQEIIQQFIAMSFNTPNVLASIANMGDDEGPSCNPKMRRGDLLKSVSMDSTEDPPSITLDNNGDMIVPNNDKEGWCRNKKYIEQTENGYMCTVCRKVYGRYNSVSYHVTIYHRNPPIKCNVPNCQFTTREARYIHFHKNYRHGIPLPESIDQGSRKCPHCRHVSKSPAMLEKHIRRHQIKDGLSNINEAIRERTSTICDEAMEIEPAETEVDPIETKPRSCTL”, “not soluble”; as for “MSFRGTVKWFSKDKGYGFITREDTNADVFVHFTDIQMEGFKTLQKGQKVEFDVVEDTKGPRAKNVRVLGE”, “soluble”.
Under “MSFSLEMPQMLPAPRDCYAVPGKPGHSEPLTVVGWEHMDLKLFYPSALFSSWSIRTALYPLAVLRSQLQLQKQNTVYRSTFHAYSDISKREGFRGLYRGFWITVPQIGCSFIYSTIFEKCRAVLHEQGIQSVGGVAAVAGGLASFATQSIFVPTDIIAQYMMIYKNTDKLTAGHDKSVIDGVRNHVKNGSGLGTSVIKAIYKTDGILGFYRGFWASTAVYVPQMLTFWPSYYWMLGLFNKVPYRTLHPATNRSLLFDQAVAATLGGVISTVATNPMELFRVRLQVHRGSYSKTLETMLRDEKTAVFTKGLTPRIIANSMYSGLVVVGYEIVKRLCAKEEYKHRVKW” stands “not soluble”.
As to “MSGAESYRHITVLLNEAVDALAVREDGVYVDGTFGRGGHSRLILSRLGDAGRLIVFDKDPQAIAVAEELARSDKRVGVVHGGFASFQTALDGLGIGKVDGALFDLGISSPQIDDGSRGFSFRFDAPLDMRMDTTRGMSAAEWIAVASEQDLHEVIKNYGEERFSRQIARAIVAQRAESPIDTTRKLAQIVAQNVRTRERGQDPATRTFQAIRIFINRELEEVGAVLPQVMCRLKEGGRLAVIAFHSLEDRIVKQFVKKYSQHAPLPRWAAVREADLPEPPLKIAGRALKPGEAEIAANPRARSAVLRVAERTAGPIPEQSQRKTSEWQLEHHHHHH”, the “soluble on expression in E. coli” value is recorded as “not soluble”.
As for “MSGATEMAVSPDGKEVAFILRGDVYVTSVEYKTTKQVTNTPCQERGIDFAPDGRTLVYASERGGLWQLYTSTIVRKDEKQFTYATELKEERLTNSDIASFNPKYSPDGKEIAFLENRTAIRVINLKTKKVRTVMDAQYQYSYSDGDQWFEWSPDSKWILSEFIGIGGWNNKDIVLLNADGKGEMHNLTESGYSDGNAKWVLGGKAMVWFSDRAGYRSHGSWGAQYDAYIMFFDVDALEHHHHHH”, the entry is “not soluble”; as for “MSGCPFAGNSVGYTLKNVSMEDNEEDRAQTGVNRASKGGLIYGNYLQLEKILNAQELQSEVKGNKIHDEHLFIITHQAYELWFKQILWELDSVREIFQNGHVRDERNMLKVIARMHRVVVIFKLLVQQFSVLETMTALDFNDFREYLSPASGFQSLQFRLLENKIGVLQSLRVPYNRKHYRDNFGGDYNELLLKSEQEQTLLQLVEAWLERTPGLEPNGFNFWGKFEKNILKGLEEEFLRIQAKTDSEEKEEQMAEFRKQKEVLLCLFDEKRHDYLLSKGERRLSYRALQGALMIYFYREEPRFQVPFQLLTSLMDIDTLMTKWRYNHVCMVHRMLGTKAGTGGSSGYHYLRSTVSDRYKVFVDLFNLSTYLVPRHWVPKMNPIIHKFLYTAEYSDSSYFSSDESD”, “soluble”; as for “MSGDFDTIRDASSPDEVQLVRLLEEKIKSLQIEIENLRKELNYYKAEMEKMLSPPLIEAVVLDVLPDGRVLVRSSSGPNLVVNIASHIDQKLIKPGISVALNQRGSTILEVLPQKE”, “soluble”.
As for “MSGGQQERHVLILNTVGGRRAIALEAAAYSLGRDESNAIVIDFETVSRQHAILLRVPVPGTTSYRYRLVDGNANGKPSTNGTFVNGKRISSHELQHGDVILFGRKAKASYLLLSMADTEFSQYLQSIAFQSIKSDLRGAKETLVGMELSGELRRTPNRELVAAGATQLHPELEHHHHHH”, the entry is “soluble”.
